Measured values taken from paper PMC5481814, “Stapled Voltage-Gated Calcium Channel (CaV) α-Interaction Domain (AID) Peptides Act As Selective Protein–Protein Interaction Inhibitors of CaV Function” (ACS Chemical Neuroscience, 2017).
Each block holds one substance with its values, some of them ahead of it.

Columns and labels:
[1] = biological target: CaVβ2a core (unimolecular CaVβ2a construct) (rat); test: ITC; 20 μM AID peptide titrated into 2 μM CaVβ2a core; 15 °C; 150 mM KCl, 10 mM potassium phosphate, pH 7.3; single site binding model
[2] = biological target: CaVβ2a core (Rattus norvegicus) (UniProt Q8VGC3); test: ITC; details: cited from earlier work
[3] = biological target: Human CaV1.2 (α1C77) (human) (UniProt Q13936)
[4] = biological target: Human CaV1.2-Y437A (human)

Human CaV1.2 (α1C77) (human), sequence (Q13936 other isoform, or with tags, fused parts or gaps): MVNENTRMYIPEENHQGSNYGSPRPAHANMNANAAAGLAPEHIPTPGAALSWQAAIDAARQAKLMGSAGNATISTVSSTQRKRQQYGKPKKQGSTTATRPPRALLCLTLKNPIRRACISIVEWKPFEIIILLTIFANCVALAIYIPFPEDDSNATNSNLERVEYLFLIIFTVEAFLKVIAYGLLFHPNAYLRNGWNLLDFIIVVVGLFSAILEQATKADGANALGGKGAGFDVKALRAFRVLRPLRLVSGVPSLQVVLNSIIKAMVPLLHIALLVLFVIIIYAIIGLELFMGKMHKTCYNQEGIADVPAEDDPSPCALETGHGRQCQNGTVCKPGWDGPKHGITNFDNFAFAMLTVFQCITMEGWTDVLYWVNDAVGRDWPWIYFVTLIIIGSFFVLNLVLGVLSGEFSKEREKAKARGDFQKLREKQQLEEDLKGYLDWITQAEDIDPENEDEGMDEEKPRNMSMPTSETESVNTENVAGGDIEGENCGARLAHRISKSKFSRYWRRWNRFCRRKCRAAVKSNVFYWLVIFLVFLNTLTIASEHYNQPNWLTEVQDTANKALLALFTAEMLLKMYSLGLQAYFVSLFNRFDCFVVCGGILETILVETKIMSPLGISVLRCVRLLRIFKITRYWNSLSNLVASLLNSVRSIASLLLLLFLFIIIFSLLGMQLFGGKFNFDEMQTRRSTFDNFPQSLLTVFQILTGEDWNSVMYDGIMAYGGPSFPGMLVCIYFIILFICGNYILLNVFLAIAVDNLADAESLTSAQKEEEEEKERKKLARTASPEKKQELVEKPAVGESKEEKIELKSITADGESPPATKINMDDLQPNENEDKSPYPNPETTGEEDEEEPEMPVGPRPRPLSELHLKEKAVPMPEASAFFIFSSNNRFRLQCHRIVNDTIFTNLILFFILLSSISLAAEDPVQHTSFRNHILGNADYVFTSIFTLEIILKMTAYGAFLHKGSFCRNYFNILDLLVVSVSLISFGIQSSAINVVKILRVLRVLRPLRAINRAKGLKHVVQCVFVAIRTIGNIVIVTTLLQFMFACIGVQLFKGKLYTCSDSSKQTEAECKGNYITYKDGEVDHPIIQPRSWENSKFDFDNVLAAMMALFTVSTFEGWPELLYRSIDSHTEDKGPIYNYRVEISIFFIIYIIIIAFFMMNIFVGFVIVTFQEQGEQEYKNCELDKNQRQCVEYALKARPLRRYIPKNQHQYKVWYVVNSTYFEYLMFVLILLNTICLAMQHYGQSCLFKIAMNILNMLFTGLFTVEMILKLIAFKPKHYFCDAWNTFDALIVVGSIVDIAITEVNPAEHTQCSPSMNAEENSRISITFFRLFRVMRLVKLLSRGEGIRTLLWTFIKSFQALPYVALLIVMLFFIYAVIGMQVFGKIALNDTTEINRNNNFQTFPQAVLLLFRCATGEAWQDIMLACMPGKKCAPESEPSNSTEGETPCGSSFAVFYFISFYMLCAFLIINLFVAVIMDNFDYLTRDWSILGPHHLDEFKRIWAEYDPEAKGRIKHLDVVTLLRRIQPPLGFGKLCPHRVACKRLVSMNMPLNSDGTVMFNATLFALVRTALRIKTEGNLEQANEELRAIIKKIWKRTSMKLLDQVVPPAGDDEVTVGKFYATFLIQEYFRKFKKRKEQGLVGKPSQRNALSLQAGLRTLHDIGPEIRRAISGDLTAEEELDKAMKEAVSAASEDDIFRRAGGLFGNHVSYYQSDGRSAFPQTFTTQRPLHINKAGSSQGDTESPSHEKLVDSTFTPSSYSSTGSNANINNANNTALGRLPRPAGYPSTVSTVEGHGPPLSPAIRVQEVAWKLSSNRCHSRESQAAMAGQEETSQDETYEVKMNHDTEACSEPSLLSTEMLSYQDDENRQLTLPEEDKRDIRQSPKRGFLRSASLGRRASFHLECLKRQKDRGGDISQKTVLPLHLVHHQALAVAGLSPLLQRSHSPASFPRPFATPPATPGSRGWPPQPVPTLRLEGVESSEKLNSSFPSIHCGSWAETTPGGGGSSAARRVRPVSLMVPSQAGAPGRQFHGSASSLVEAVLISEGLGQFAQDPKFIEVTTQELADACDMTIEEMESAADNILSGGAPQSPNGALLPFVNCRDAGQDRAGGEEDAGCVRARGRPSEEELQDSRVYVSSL
CaVβ3 (expressed in oocytes), sequence (P54286 whole entry): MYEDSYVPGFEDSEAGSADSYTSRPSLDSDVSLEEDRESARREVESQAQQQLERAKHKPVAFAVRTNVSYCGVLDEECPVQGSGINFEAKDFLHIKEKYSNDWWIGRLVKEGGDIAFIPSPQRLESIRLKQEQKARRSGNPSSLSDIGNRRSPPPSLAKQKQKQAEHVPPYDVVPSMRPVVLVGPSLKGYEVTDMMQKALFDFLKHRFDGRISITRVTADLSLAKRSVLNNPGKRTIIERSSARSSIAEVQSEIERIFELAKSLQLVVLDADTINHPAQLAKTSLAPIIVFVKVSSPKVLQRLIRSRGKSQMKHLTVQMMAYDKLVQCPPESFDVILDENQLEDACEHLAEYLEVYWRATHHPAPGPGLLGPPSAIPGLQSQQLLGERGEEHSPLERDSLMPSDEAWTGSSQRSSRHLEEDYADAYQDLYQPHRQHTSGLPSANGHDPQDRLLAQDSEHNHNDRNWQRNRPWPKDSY
CaV1.2 AID peptide AID, sequence (Q13936 425-448): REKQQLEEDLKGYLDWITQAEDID
CaVβ2a core (Rattus norvegicus), sequence (Q8VGC3 68-476): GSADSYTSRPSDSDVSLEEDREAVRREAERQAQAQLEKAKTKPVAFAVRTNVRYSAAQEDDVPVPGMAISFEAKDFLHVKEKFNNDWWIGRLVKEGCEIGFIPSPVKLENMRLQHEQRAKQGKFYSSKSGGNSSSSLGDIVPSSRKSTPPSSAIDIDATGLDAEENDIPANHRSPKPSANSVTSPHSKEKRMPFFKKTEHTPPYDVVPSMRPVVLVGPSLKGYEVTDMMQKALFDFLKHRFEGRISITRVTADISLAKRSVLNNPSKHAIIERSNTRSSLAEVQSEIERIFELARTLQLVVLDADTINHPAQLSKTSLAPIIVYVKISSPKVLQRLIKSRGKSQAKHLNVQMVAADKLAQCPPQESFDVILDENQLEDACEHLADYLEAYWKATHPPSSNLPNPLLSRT

Kd [1]: 6.6 nM
dH [1]: -15.6 kcal mol^–1
stoichiometry N [1]: 0.94
Substance: CaV1.2 AID peptide (α-interaction domain, unmodified)

Substance: CaV1.2 AID peptide AID (from UniProt Q13936)
Kd [2]: 5.3 nM

Substance: CaVβ3 (expressed in oocytes) (from UniProt P54286 1-477) (natural protein)
time constant τ for the loss of CaV1.2:CaVβ3 channels (rundown of Imax, single exponential fit) after injection of 2.8 mM AID peptide [3]: 4.6 min
time constant τ for the loss of CaV1.2:CaVβ3 channels (rundown of Imax, single exponential fit) after injection of 2.8 mM AID-CAP peptide [3]: 5.3 min

Substance: Rat CaVβ2a (expressed in oocytes) (natural protein)
time constant τ of the rundown of Imax of CaV1.2-Y437A:CaVβ2a currents after injection of 400 μM AID peptide (single exponential fit) [4]: 5.3 min
time constant τ of the rundown of Imax of CaV1.2-Y437A:CaVβ2a currents after injection of 400 μM AID-CAP peptide (single exponential fit) [4]: 4.1 min
